Assay results published in IntAct's records for PubMed 21300063.

B1: Alsin (Homo sapiens), Q96Q42 (parent)
chain: MDSKKRSSTEAEGSKERGLVHIWQAGSFPITPERLPGWGGKTVLQAALGVKHGVLLTEDGEVYSFGTLPWRSGPVEICPSSPILENALVGQYVITVATGSFHSGAVTDNGVAYMWGENSAGQCAVANQQYVPEPNPVSIADSEASPLLAVRILQLACGEEHTLALSISREIWAWGTGCQLGLITTAFPVTKPQKVEHLAGRVVLQVACGAFHSLALVQCLPSQDLKPVPERCNQCSQLLITMTDKEDHVIISDSHCCPLGVTLTESQAENHASTALSPSTETLDRQEEVFENTLVANDQSVATELNAVSAQITSSDAMSSQQNVMGTTEISSARNIPSYPDTQAVNEYLRKLSDHSVREDSEHGEKPVPSQPLLEEAIPNLHSPPTTSTSALNSLVVSCASAVGVRVAATYEAGALSLKKVMNFYSTTPCETGAQAGSSAIGPEGLKDSREEQVKQESMQGKKSSSLVDIREEETEGGSRRLSLPGLLSQVSPRLLRKAARVKTRTVVLTPTYSGEADALLPSLRTEVWTWGKGKEGQLGHGDVLPRLQPLCVKCLDGKEVIHLEAGGYHSLALTAKSQVYSWGSNTFGQLGHSDFPTTVPRLAKISSENGVWSIAAGRDYSLFLVDTEDFQPGLYYSGRQDPTEGDNLPENHSGSKTPVLLSCSKLGYISRVTAGKDSYLALVDKNIMGYIASLHELATTERRFYSKLSDIKSQILRPLLSLENLGTTTTVQLLQEVASRFSKLCYLIGQHGASLSSFLHGVKEARSLVILKHSSLFLDSYTEYCTSITNFLVMGGFQLLAKPAIDFLNKNQELLQDLSEVNDENTQLMEILNTLFFLPIRRLHNYAKVLLKLATCFEVASPEYQKLQDSSSCYECLALHLGRKRKEAEYTLGFWKTFPGKMTDSLRKPERRLLCESSNRALSLQHAGRFSVNWFILFNDALVHAQFSTHHVFPLATLWAEPLSEEAGGVNGLKITTPEEQFTLISSTPQEKTKWLRAISQAVDQALRGMSDLPPYGSGSSVQRQEPPISRSAKYTFYKDPRLKDATYDGRWLSGKPHGRGVLKWPDGKMYSGMFRNGLEDGYGEYRIPNKAMNKEDHYVGHWKEGKMCGQGVYSYASGEVFEGCFQDNMRHGHGLLRSGKLTSSSPSMFIGQWVMDKKAGYGVFDDITRGEKYMGMWQDDVCQGNGVVVTQFGLYYEGNFHLNKMMGNGVLLSEDDTIYEGEFSDDWTLSGKGTLTMPNGDYIEGYFSGEWGSGIKITGTYFKPSLYESDKDRPKVFRKLGNLAVPADEKWKAVFDECWRQLGCEGPGQGEVWKAWDNIAVALTTSRRQHRDSPEILSRSQTQTLESLEFIPQHVGAFSVEKYDDIRKYLIKACDTPLHPLGRLVETLVAVYRMTYVGVGANRRLLQEAVKEIKSYLKRIFQLVRFLFPELPEEGSTIPLSAPLPTERKSFCTGKSDSRSESPEPGYVVTSSGLLLPVLLPRLYPPLFMLYALDNDREEDIYWECVLRLNKQPDIALLGFLGVQRKFWPATLSILGESKKVLPTTKDACFASAVECLQQISTTFTPSDKLKVIQQTFEEISQSVLASLHEDFLWSMDDLFPVFLYVVLRARIRNLGSEVHLIEDLMDPYLQHGEQGIMFTTLKACYYQIQREKLN

Variants of: B1
Details: with rab5a_human RAB5A

| effect of a mutation on the interaction | Variant |
| --- | --- |
| increasing interaction | C157Y |

Variants of: B1
Details: with eea1_human EEA1, Q15075
Sequence of eea1_human EEA1, Q15075 (Q15075 whole entry): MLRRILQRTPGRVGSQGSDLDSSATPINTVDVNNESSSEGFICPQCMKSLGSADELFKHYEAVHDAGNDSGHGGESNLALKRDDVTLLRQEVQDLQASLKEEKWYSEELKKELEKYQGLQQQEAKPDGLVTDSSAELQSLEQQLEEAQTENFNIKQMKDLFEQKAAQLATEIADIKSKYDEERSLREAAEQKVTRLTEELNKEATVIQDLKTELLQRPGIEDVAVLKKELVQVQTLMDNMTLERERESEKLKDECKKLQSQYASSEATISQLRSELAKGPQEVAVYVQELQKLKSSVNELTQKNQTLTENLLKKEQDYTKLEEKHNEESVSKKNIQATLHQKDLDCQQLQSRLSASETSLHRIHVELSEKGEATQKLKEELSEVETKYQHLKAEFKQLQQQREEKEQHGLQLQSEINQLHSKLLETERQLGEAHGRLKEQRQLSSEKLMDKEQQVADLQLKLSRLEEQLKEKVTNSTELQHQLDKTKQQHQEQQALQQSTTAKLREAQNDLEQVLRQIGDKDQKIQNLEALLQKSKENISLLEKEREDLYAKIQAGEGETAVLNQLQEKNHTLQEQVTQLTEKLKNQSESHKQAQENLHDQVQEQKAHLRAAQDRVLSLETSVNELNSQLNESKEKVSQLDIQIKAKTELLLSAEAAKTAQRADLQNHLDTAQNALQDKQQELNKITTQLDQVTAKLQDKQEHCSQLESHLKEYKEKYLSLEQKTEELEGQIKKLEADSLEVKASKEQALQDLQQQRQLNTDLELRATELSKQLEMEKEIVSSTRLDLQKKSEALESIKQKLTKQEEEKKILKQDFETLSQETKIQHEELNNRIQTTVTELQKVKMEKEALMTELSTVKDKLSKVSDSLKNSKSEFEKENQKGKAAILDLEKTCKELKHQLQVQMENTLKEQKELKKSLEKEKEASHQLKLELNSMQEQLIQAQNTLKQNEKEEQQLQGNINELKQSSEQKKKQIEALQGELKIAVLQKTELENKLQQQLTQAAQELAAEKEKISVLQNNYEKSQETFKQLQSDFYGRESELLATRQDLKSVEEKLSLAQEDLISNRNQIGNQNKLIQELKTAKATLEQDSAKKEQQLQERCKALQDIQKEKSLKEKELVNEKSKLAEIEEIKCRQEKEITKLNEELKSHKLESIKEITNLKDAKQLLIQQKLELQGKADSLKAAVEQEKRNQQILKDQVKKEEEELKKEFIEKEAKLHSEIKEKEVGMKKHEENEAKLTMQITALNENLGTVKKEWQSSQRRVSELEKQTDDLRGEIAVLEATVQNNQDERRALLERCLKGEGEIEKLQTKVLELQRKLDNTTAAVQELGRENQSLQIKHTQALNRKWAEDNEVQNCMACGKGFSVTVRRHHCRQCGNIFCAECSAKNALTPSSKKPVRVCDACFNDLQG

| effect of a mutation on the interaction | Variant |
| --- | --- |
| disrupting interaction | C157Y |

Variants of: B1
Details: with rab5a_human RAB5A
Remark: another data set of the same source

| effect of a mutation on the interaction | Variant |
| --- | --- |
| increasing interaction | G540E |

Variants of: B1
Details: with eea1_human EEA1, Q15075
Remark: another data set of the same source

| effect of a mutation on the interaction | Variant |
| --- | --- |
| disrupting interaction | G540E |

Variants of: B1
Details: with eea1_human EEA1, Q15075
Remark: another data set of the same source

| effect of a mutation on the interaction | Variant |
| --- | --- |
| disrupting interaction | P1603A |
